In patent EP3069729A1 (Sequoia Sciences, Inc., dated 2016):

Target: T1, horseradish peroxidase (HRP) (UniProt P00433 31-338)
T1 sequence: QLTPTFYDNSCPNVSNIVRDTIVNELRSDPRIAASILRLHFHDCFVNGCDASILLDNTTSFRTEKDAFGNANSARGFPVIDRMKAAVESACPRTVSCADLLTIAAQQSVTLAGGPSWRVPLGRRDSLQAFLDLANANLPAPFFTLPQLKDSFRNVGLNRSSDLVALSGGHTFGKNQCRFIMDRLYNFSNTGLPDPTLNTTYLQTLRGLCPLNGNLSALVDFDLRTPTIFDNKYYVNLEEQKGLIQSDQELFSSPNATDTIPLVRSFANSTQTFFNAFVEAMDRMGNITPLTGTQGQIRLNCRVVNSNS
Assay: in vitro mannose binding potency assay; inferred from the Q133K FimCH complex

B1: FimC (other)
chain: GVALGATRVIYPAGQKQVQLAVTNNDENSTYLIQSWVENADGVKDGRFIVTPPLFAMKGKKENTLRILDATNNQLPQDRESLFWMNVKAIPSMDKSKLTENTLQLAIISRIKLYYRPAKLALPPDQAAEKLRFRRSANSLTLINPTPYYLTVTELNAGTRVLENALVPPMGESAVKLPSDAGSNITYRTINDYGALTPKMTGVME
notes: also called FimC protein
  binding result: no binding
